The values that follow come from publication PMC4552487 (2015).

The target in the assay is T1, Parkin (80-465)-Biotin, wild type (UniProt O60260 80-465, biotin (position not given)).
T1 chain: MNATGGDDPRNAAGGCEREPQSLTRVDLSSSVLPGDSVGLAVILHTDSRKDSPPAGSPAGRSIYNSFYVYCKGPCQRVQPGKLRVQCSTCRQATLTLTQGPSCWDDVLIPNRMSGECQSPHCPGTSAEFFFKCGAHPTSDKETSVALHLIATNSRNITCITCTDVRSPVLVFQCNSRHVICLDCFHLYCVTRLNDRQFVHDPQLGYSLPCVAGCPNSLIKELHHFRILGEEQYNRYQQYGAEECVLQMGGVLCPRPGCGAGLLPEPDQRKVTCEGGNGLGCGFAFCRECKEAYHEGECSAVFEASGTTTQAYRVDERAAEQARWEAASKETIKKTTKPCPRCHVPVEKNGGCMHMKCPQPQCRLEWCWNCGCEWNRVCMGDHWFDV
Description: competition with GST-Ubl (AlphaScreen).

The IC50 is the point on the concentration scale where inhibition reaches its midpoint. A low value points to greater potency.

B1: Ubl (protein)
chain: MIVFVRFNSSHGFPVEVDSDTSIFQLKEVVAKRQGVPADQLRVIFAGKELRNDWTVQNCDLDQQSIVHIVQRPWRK
Regarding B1, the IC50 amounted to 134 nM.

B2: Ser65-phosphorylated Parkin Ubl domain (residues 1-76) (Ubl^Phospho-Ser65) (domain or fragment)
chain: B1 chain
modifications: phosphoserine at 65
Regarding B2, the IC50 was greater than 2530 nM.
